Reference: paper doi:10.1101/2025.09.19.677352

Assays:
[1] = target: ap JFcα (mallard duck IgA heavy chain Cα2-Cα3-Cα4-Tp co-expressed with joining chain) (Anas platyrhynchos (mallard duck)); assay: SPR
[2] = target: mm JFcα (mouse IgA heavy chain and joining chain) (Mus musculus (house mouse)); assay: SPR

| SPR response [1] [RU] | Substance | other results |
| --- | --- | --- |
| 29 | hs SC D1 (human SC D1 only) (domain or fragment) |  |
| 1 | mm SC D1-D3-D4-D5 (mouse SC with D2 deletion) (from UniProt O70570 19-585) (domain or fragment) |  |

The remaining lines, values behind:

| Substance | SPR response [1] [RU] | other results |
| --- | --- | --- |
| ap SC D1_(ΔN-ext.)-D2-D3-D4 (mallard duck SC without the SC N-terminal extension) (domain or fragment) |  | maximum response against concentration-matched ap SC wt [1]: 20 % lower |
| hs SC D1-D3-D4-D5 (human SC with D2 deletion) (from UniProt P01833 19-638) (domain or fragment) | 34 |  |
| mm SC D1 (mouse SC D1 only) (domain or fragment) | 7 |  |
| mm SC D1_((+)N-ext.) (mouse SC D1 with the mallard duck SC N-terminal extension) |  | maximum response at 64 nM against the non-chimeric variant [2]: 93 % higher |
